Assay: soluble on expression in E. coli; label from the status in PepcDB or PDB records

Sequence	soluble on expression in E. coli
MPKTQSAAGYKAGVKDYKLTYYTPDYTPKDTDLLAAFRFSPQPGVPADEAGAAIAAESSTGTWTTVWTDLLTDMDRYKGKCYHIEPVQGEENSYFAFIAYPLDLFEEGSVTNILTSIVGNVFGFKAIRSLRLEDIRFPVALVKTFQGPPHGIQVERDLLNKYGRPMLGCTIKPKLGLSAKNYGRAVYECLRGGLDFTKDDENINSQPFQRWRDRFLFVADAIHKSQAETGEIKGHYLNVTAPTCEEMMKRAEFAKELGMPIIMHDFLTAGFTANTTLAKWCRDNGVLLHIHRAMHAVIDRQRNHGIHFRVLAKCLRLSGGDHLHSGTVVGKLEGDKASTLGFVDLMREDHIEADRSRGVFFTQDWASMPGVLPVASGGIHVWHMPALVEIFGDDSVLQFGGGTLGHPWGNAPGATANRVALEACVQARNEGRDLYREGGDILREAGKWSPELAAALDLWKEIKFEFETMDKL	soluble
MPKVDVYDINGKVVGEINLRDDIFGIEVNKHAIHQVIVNQLANRRQGTQSTKTKSEVRGGGRKPWRQKGTGRARHGSIRSAQWVKGGIALGPKPRSYKYAVPKKLRRLALKSALSSKVNENELLVLDSLNFDEIKTKQMANVLKNLKVNDTTAVLVLADKNRNVELSARNIPGLKTLFVNTMNVYDIIRHDKFIITKDAVAKVEEVYA	not soluble
MPKVISQKEFNILSRTKERVNFQIVYTKQRNGLHKAAKEYFFKDKDFTIIEDTPDTPDQPDGPCITKGPKEPGGPEEPNGPDKPEDPKDPDTPDVSEGPKEQGGQKDPGGPDDPSEGKQKVSKPDKYVTHRELDEKLKDFATKADFKRVEDKVDVLFELQKTQGEQIKVQGEQIKAQGKQIEQLTETVKVQGEQIRAQGEQIKAQSEEIKEIKVEQKAQGEQIKELQVEQKAQGKTLQLILKTLEKMNERLEKLESKLEHHHHHH	not soluble
MPLPTELARHLTEEKIAFVQRSGLRAEVLEPGYVRLRMPGAGNENHIGSMYAGALFTLAELPGGALFLTSFDSARFYPIVKEMTLRFRRPAKGDIRVEARLDAERIRQLETEAGERGKAEYSLELQLTDEQGEVVAESAALYQLRSHARP	soluble
MPLSPYLSFAGNCADAIAYYQQTLGAELLYKLSFGEMPPSAADNEEGCPSGMRFPDTAIAHANMRIAGSDIMMSDASASGRAHYSGFTLVLDTQDVAEGKRWFDNLAAQGQIEMDWQETFWAQGFGKVSDRFGVPWMINVVKHQPAT	not soluble
MPLTLNQLAELSGRASEHVLAEEVEETGTPAEEILARLRERLAVMRDSVRRGLASDAPSVAGLVGKNAKTLWEAPDPLQDPLLKRVQAYAMAVNEENARMGRIVAAPTAGSAGTLPGALLGVADHLGIPDEELLMPLVLAGGVAKMIGRVIHIAGASGGCQAEIGSSAAMAAAAVTELLGGTPEACAHAAALALQNTLGLVCDPVGGFVEVPCVMRNGFYAVHAVSAASMALAGIRSVIPPDEVVLAMAGIGRLLPLELKETGLGGLADTPTGRRLAEEALKKT	soluble
MPLTLYQRDDCHLCDQAVEVVAQARAGDFDSVFIDDDAALEAVYGARVPVLRDARGRELEWPFDRVRLRAWLDDDAERLEHHHHHH	not soluble
MPLTPADVHNVAFNKPPIGKRGYNEDEVDQFLDLVEDALVQFQEENEDLKQQVEELEAQVAGGTSSAASSSTAGAATAAASKSVDEAALRKEIEEKLRSEYASKLDDASKAAQKAQNDAKSAQDQLQRAQADAKAARDEAEKAKAEAKSAASSSTTKAAAVGAVGAGTGAAVATGAANVDTHMQAAKVLGLAQEMADRLTSEARSESKSMLDEAREAAEKQIEEANSTSNRTLEDARANAEKQIAEAQNRADTLVNEADAKAKNLVSEAEKKSAATLAASTSRAEAQIRQAEDKANALQADAERKHTETMAAVKEQQNALETRIAELQTFEREYRTRLKSLLEGQLEELNARGSSAPTNNKPSGE	not soluble
MPLVSMKEMLNKALEGKYAVGQFNMNNLEWTQAILAAAEEEKSPVILGVSEGAARHMTGFKTVVAMVKALIEEMNITVPVAIHLDHGSSFEKCKEAIDAGFTSVMIDASHHPFEENVETTKKVVEYAHARNVSVEAELGTVGGQEDDVIAEGVIYADPAECKHLVEATGIDCLAPALGSVHGPYKGEPNLGFAEMEQVRDFTGVPLVLHGGTGIPTADIEKAISLGTSKINVNTENQIEFTKAVREVLNKDQEVYDPRKFIGPGRDAIKATVIGKIREFGSNGKA	not soluble
MPMFIVNTNVPRASVPDGFLSELTQQLAQATGKPPQYIAVHVVPDQLMAFGGSSEPCALCSLHSIGKIGGAQNRSYSKLLCGLLAERLRISPDRVYINYYDMNAANVGWNNSTFALEHHHHHH	soluble
MPMKDVLSRIGIGSATVDTVLPTDSVRAGESVRAEVHVEGGSTDQNIDSVYFALETEYKSDEGYKDAIIDQWQLTEPFTIEAGEKRRFETTIDIPRETPVTTRSTAVEIETGLDISMAVDPGDEDYIEVEPTHRTQAVFDALDSLGFSLHASACEAAAGSLFTTSANFAQEFEFRPQRGEFTGAVDEVEIVPVFDDDRLTVYLEVDRSAGLLSEVTDADERHTKLTIEAPDPDAIEPRLAEAIRELS	not soluble
MPMLTRILLLLCVALNAPLASAKETLHIYAASSMTNAVNALVADYSQQHDVKLVTVYGGSSSLARQIEAGAPADLFISANEEWANYLVEKGLVKPNKVVTLAANSLVLIRPTAQPVASFELQDAAAWQTALADSRLAVAQVDAVPAGMYAKQALQHAGVWPELESRLAQTNNVRLALALVERGESPLGIVYKTDALLSDKVTIVTAFSAQSHQPIRYPLAQLNDKAASAEWVAYLRSDAAQQILQRFGFESVSE	not soluble
MPNDMTHIDKIQALAFSIGKKMQTELLEQMQATGLTPPQFYILKILDHYGASRATTLAKKMYVKPSAITVMIDRLIDQELVERYHDKDDRRVVIIELTKKGKARVEEAMTARNEHIAKYFSHLELQEREDLLRLFEKLETIICGTQEKKENN	not soluble
MPPKQQGPSKKSEQKRKEKVIEDKTFGLKNKKGNKNQKFVAQVENQVRNNNTRMDLVRQQEAAKKKEKDELLDIANLLKPVEQKVAKDVDPKSLLCVFFKQGLCGKGAKCKFSHDLAVAQKTAKKNLYADSREVEKDEETNENWDSDKLNEVVNKKNKNKHMIDIVSSFMTDIFKFKKLNFKVCKYFLEAVENNKYGWFWECPNGGEKCQYRHCLPEGYVLKKERKAMEQQKEDEISIEELVEKERAALSSKNLTKLTLQTFIAWKKKKLRERKEKEEADLKEKKEKIKSGKHNGMSGRDLFLYDANLVNNDDDEAGDIEMEKEEVDENEKVFEIDANFFKFDGMDDELTDQMSKSSTAVESTAKGMAKMDINEDLFDIDEDVENLDSDED	soluble
MPPPLPYDAMRSVWTDTAAPAMATAPLAGHADCDVAIVGAGITGLSAALHLAERGLRACVLEARDPGWGASGRNGGQVIPGIKHDPDEILARHGRERGEPLLHMVGTAADTVFDLIDRYGLDLVQAQIRLAAGERLDRVVPADLQPSGHAIELRVYAEDPVRFIPSPGTLAVFELPQGPGVRTETGYHAGNAVSPHYDPMIAKIIVHGADRAQAIARAEQALADTEIAGVKTNLPFLARALAFEPWRQGRLHTGIVARTLAEPAPAALTALEHHHHHH	not soluble
MPPRPRMLAAAITAALALGAQAVPAAAADGPAGDSTATTSRGVEIPAFYTPPSELPAADGTLIRHEPLPLALSLPGIDGPLPGRATRLMYKSTDANGEAVAVTGAYVEPAAKWRGDGPRPLVAVAPGTMGQGDQCAASMALEHPLQLNGQTVSVGYEDLSVYRLLLRGVAVVVTDYVGLGTTDRLHTYVNRVDGAHAVLDAVRAARSLDSASVTSDSRVGLFGYSQGGGATAAAAELQPSYAPDVQLAGTYAGAPPADLTEVTKAIDGSDLAGALGWSLNGFLQTEPALRPIADRYINEAGQEALKDLSTMCVGDALFGYGGDSSTDWTRTGQSISDVIRAEPALQSFLAEQRIGSTAPGSPVRVATGVSDDLVPHGQARRLAVDWCGKGGKVTYVPVLIPGVGSGLLNHFAPLLADQGNAIAWLTDRLSGEPAGSNCWSMPVQPLEHHHHHH	soluble
MPQTERQLRVWIEGATGRRIGDNFMDGLKDGVILCELINKLQPGSVQKVNDPVQNWHKLENIGNFLRAIKHYGVKPHDIFEANDLFENTNHTQVQSTLIALASQAKTK	soluble
MPQVETTSVFRADLLKEMESSTGTAPASTGAENLPAGSALLVVKRGPNAGARFLLDQPTTTAGRHPESDIFLDDVTVSRRHAEFRINEGEFEVVDVGSLNGTYVNREPRNAQVMQTGDEIQIGKFRLVFLAGPAELEHHHHHH	soluble
MPRARCKRCLRPTGYCLCALIPQIESRTRVLILQHPDEVSHALNTARLAALGLVNAQLCVGEVFDDLHTLLNPPGYQARLLFPGDAAETLTAYAPDATPMLLVVPDGTWRKARKLLHLNPLLAALPRVTLGSVPASRYRLRKAPGPEALSTLEAIVHTLQTLEAPNAFEALLKPFDALIDGQIQAMGNDTYQRNHGNQRLEHHHHHH	not soluble
MPRIAIPDDLTEILTVVEFPLPNAPEIKIEIERLLQATGNSLSGKVTDDLVRSCQGLSMERIRRVLAKAIATHGELQPEDVDLVLEEKRQTIRQTQILDFYPATEQISDIGGLDNLKDWLLRRGGSFSERARQYGLPHPRGLLLEHHHHHH	not soluble
MPRLALRQYNFYYRVNGEKAEELLKEYGEDGDFLLRYSESNPQNFSISVRVAEDKILHIKVTKYESDMLSIFEDERTTPNQFGSITELAEFYMEFPEKLREKNGLFLELKKPVYVPYHLEACAEEQRRTQLYRWWHGNLPASSANKLLQTEKNGTYLLRASQHIPGALVISAKTEGQVVHLTIYQDPSTGRFNIDGDRTKFQSAWLLIDSYSKNPIVEKGEASRVLYLEEPLFNTFIEADLFVDRFEIIRRPINPRESMEKTGISEEFDRLSQEALPAEQYLSKREGRRPVNAEKNRYKNIVPFDHTRVILTDRPNTPGSDYINASYVRFENSQRTKNVTFACEKSFIATQGCLETTISDFWSMVWQENSRVIVMPTMENERKEKCARYWPAEVNKPEVHGDISLTCTIERKVQRAVSDEVKAELEQEKTNRIAKGLVPEAELNGDGISYILRTLVMKKGKDTREIRQLQYLTWPDHGCPLHPYAVLNFLEDVDREYDYFNAQPIAASLPQGPIVVHCSAGIGRTGTVLVLDALLNQVKKVGLLCPMDVYKMVKYVRTYRSGLVQTEQQYQFLYKALAFYLKNNNPYPVKSFIDGDTDAFDFPRRLRPTPNASRPSSARQVTSSRPSSSASSRTSHSRPRTGPQAEPIFERSTSSTSSSSTLLKSTKK	not soluble
MPRVDHGSPQAGPPAPCVGILLAGGQGRRFAAASGGQDKLLARLADGTAVAVRAAAALREATDAVVAVVRPESAVLAALLRGQGCHVLESEQAREGMGASLAAAARFLLAGQVPDMPERADVCLVALADMPWVRRDTLSAVRAAACADGITVPVHQGRRGHPVAFGRSLWGELAALRGDVGARELLRRHRVAAVEVDDPGVAADVDTPGDLAGDRALEHHHHHH	not soluble

— the DeepSol protein solubility set
